Target: 8His-Smc3 with the J-head reporter cysteine (wild type trimer) (S. cerevisiae) (UniProt P47037)
Test: cross-linking

percent of molecules cross-linked: 70%
Substance: Smc1 with the J-head reporter cysteine (wild type trimer) (from UniProt P32908 1-1225) (natural protein)

From doi:10.1101/2022.06.19.496727
